From the RNAGym collection of RNA variant scans (doi:10.7554/elife.80360) come the findings set out here.

The chains are these.
B1: CPEB3 Ribozyme (parent)
chain: GGGGGCCACAGCAGAAGCGUUCACGUCGCGGCCCCUGUCAGAUUCUGGUGAAUCUGCGAAUUCUGCUGU

The variants in this data set derive from B1. The data set is described as follows: self-cleavage, relative activity (ratio to wild type); higher = more cleavage; co-transcriptional.
Consider A8G C9A, for which the self-cleavage amounted to 0.994.

With C9G A51C, the self-cleavage turned out to be 0.674.

As for A8C C27U, the self-cleavage was determined as 0.342.

Take A8U C66A: the self-cleavage was 0.857.

For the variant A8U C66U, the self-cleavage turned out to be 0.993.

Regarding C9A U49A, the self-cleavage was 1.03.

As to C9A U49G, the self-cleavage was 1.04.

With C9A G41U, the self-cleavage was found to be 0.955.

In the case of A8G C39U, the self-cleavage worked out at 0.448.

In the case of A8G C32U, the self-cleavage was 0.877.

Regarding A8G C32G, the self-cleavage was 0.517.

Take A8G U43C: the self-cleavage was 0.758.

For C7U G30A, the self-cleavage was 0.957.

As for C7U G30U, the self-cleavage is 0.814.

Regarding C7U G30C, the self-cleavage is 0.608.

C9A U20C: the self-cleavage came to 0.197.

With A8U U62G, the self-cleavage was determined as 0.945.

As for A8U U62A, the self-cleavage stood at 0.97.

As to C9A C27A, the self-cleavage was 0.798.

As to C9G G41A, the self-cleavage stood at 0.872.

Take A8C G14U: the self-cleavage turned out to be 0.723.

C9G C22A: the self-cleavage is 0.189.

As to A8U G37C, the self-cleavage stood at 0.169.

As for C7U C63G, the self-cleavage was found to be 0.603.

Turning to C9G C54G, the self-cleavage was 0.926.

As to C7U G68U, the self-cleavage came to 0.965.

In the case of A8G G50U, the self-cleavage was 0.877.

For A8G G50A, the self-cleavage turned out to be 0.868.

Consider A8U U36G, for which the self-cleavage was found to be 0.163.

Turning to A8G A16G, the self-cleavage amounted to 0.458.

As to A8G A16C, the self-cleavage is 0.0896.

As for C7U G48C, the self-cleavage was determined as 0.949.

Regarding A8G A15G, the self-cleavage was 0.777.

Turning to C9G G37C, the self-cleavage is 0.289.

With C9G G37A, the self-cleavage is 0.371.

Take A8U C29A: the self-cleavage came out at 0.269.

Regarding A8G U61A, the self-cleavage amounted to 0.379.

C9G C63G: the self-cleavage turned out to be 0.799.

A8U A10G: the self-cleavage amounted to 0.937.

Regarding A8U A10C, the self-cleavage was found to be 1.03.

As to A8U G17A, the self-cleavage turned out to be 0.388.

On to A8U U55A, for which the self-cleavage was 0.967.

For A8C A15G, the self-cleavage was 0.995.

With A8C G48A, the self-cleavage came out at 1.

Take C9G C27A: the self-cleavage was found to be 0.754.

In the case of C9G C27G, the self-cleavage stood at 0.246.

Take A8C G28A: the self-cleavage was 0.215.

Regarding C9A A16G, the self-cleavage came out at 0.992.

In the case of C9A A16C, the self-cleavage amounted to 0.56.

On to C9A C39U, for which the self-cleavage was found to be 0.973.

In the case of C9G C18U, the self-cleavage was determined as 0.935.

For C9A G37U, the self-cleavage is 0.401.

As to A8C C63G, the self-cleavage turned out to be 0.734.

As for A8U U43G, the self-cleavage was found to be 0.913.

With C9G C57U, the self-cleavage is 0.356.

With C9G G17U, the self-cleavage worked out at 0.68.

As for C9G G17A, the self-cleavage turned out to be 0.66.

For the variant A8G U36C, the self-cleavage stood at 0.593.

For the variant A8G U36G, the self-cleavage was 0.135.

As to A8C A52U, the self-cleavage was 0.962.

Turning to A8G U69A, the self-cleavage turned out to be 0.928.

With A8G U69C, the self-cleavage was 1.05.

In the case of C9A U26G, the self-cleavage came out at 0.983.

As for A8C A40C, the self-cleavage is 0.639.

For the variant C7U G37A, the self-cleavage came to 0.187.

As to C7U G37C, the self-cleavage amounted to 0.152.

As to A8C U38G, the self-cleavage turned out to be 0.245.

A8C U38A: the self-cleavage was 0.897.

In the case of A8C G31A, the self-cleavage worked out at 0.888.

Turning to A8G C57U, the self-cleavage came out at 0.303.

For the variant C7U U55C, the self-cleavage is 0.744.

For C7U U55G, the self-cleavage was 0.706.

On to C9G A52C, for which the self-cleavage stood at 0.985.

In the case of C9G A52U, the self-cleavage was determined as 1.04.

C9G C66A: the self-cleavage was determined as 0.831.

Take C9A A13C: the self-cleavage worked out at 0.965.

For the variant A8U U67C, the self-cleavage is 1.

For the variant A8U U67A, the self-cleavage was 1.03.

Consider A8U G30U, for which the self-cleavage came to 0.519.

Consider A8U G58A, for which the self-cleavage is 0.995.

Turning to C9G, the self-cleavage amounted to 1.01.

Take C9A: the self-cleavage was found to be 1.03.

On to A8G U53C, for which the self-cleavage was 0.31.

A8G U53A: the self-cleavage was 0.591.

Regarding A8U C18U, the self-cleavage came out at 0.928.

For A8C A59C, the self-cleavage is 0.725.

As to A8C U64A, the self-cleavage came out at 0.947.

In the case of C7U U44A, the self-cleavage was 0.881.

As to C7U U44G, the self-cleavage came out at 0.914.

Regarding A8G G31C, the self-cleavage worked out at 0.0995.

As to A8G C27G, the self-cleavage was 0.0649.

For the variant A8U G11C, the self-cleavage was 0.873.

Take A8U G19C: the self-cleavage was found to be 0.146.

Consider A8U G19U, for which the self-cleavage was determined as 0.483.

Turning to A8C U44G, the self-cleavage amounted to 0.927.

For A8U A52C, the self-cleavage worked out at 0.975.

Regarding C9G A23C, the self-cleavage was 0.993.

For C9A G14U, the self-cleavage was 0.767.

C9A G14A: the self-cleavage is 0.725.

In the case of A8C U46G, the self-cleavage amounted to 0.982.

As to C7U G31A, the self-cleavage turned out to be 0.496.

A8U U69G: the self-cleavage came to 1.06.

Regarding C9A U36A, the self-cleavage worked out at 0.315.

In the case of C9A G31A, the self-cleavage was determined as 1.

Consider C9A G31U, for which the self-cleavage stood at 0.961.

Consider C9A G31C, for which the self-cleavage is 0.291.

Turning to A8G U64G, the self-cleavage came out at 0.304.

As to A8C G47U, the self-cleavage was 1.04.

As for A8C G47C, the self-cleavage worked out at 1.03.

For A8G U38A, the self-cleavage is 0.662.

A8G U38G: the self-cleavage worked out at 0.0785.

Turning to A8C G50U, the self-cleavage stood at 1.03.

With A8C G50A, the self-cleavage was determined as 1.02.

On to A8C G50C, for which the self-cleavage came to 0.98.

As for C9A U69A, the self-cleavage was determined as 1.06.

Turning to C7U U61G, the self-cleavage turned out to be 0.714.

On to A8C C66A, for which the self-cleavage came out at 0.818.

Consider A8U A13U, for which the self-cleavage turned out to be 0.805.

As to A8U G28A, the self-cleavage was 0.141.

For the variant A8U G28U, the self-cleavage came to 0.0893.

Consider A8U C22A, for which the self-cleavage worked out at 0.154.

On to C9A U38G, for which the self-cleavage turned out to be 0.152.

Regarding C9A U38A, the self-cleavage is 0.989.

In the case of A8U G65A, the self-cleavage came to 0.901.

Regarding A8U U53G, the self-cleavage is 0.891.

Consider A8U U53A, for which the self-cleavage worked out at 0.913.

On to C9A C18G, for which the self-cleavage stood at 0.26.

Regarding A8G U44A, the self-cleavage was determined as 0.607.

As to A8G U44G, the self-cleavage worked out at 0.651.

Regarding A8C U26A, the self-cleavage is 0.82.

A8C U26C: the self-cleavage was 0.992.

Turning to A8C U26G, the self-cleavage stood at 0.835.

As for A8G A23C, the self-cleavage was 0.751.

Turning to A8U G56C, the self-cleavage came out at 0.761.

As for A8C G58C, the self-cleavage stood at 0.963.

For A8C G58U, the self-cleavage stood at 1.03.

For the variant C9A G47C, the self-cleavage was 1.

Consider C7U G56A, for which the self-cleavage came to 0.916.

For the variant A8G C34A, the self-cleavage was found to be 0.734.

Turning to A8G C34U, the self-cleavage is 0.952.

As for A8C C35A, the self-cleavage came out at 0.374.

Consider C9G G11C, for which the self-cleavage turned out to be 0.721.

For C9G G11U, the self-cleavage is 0.922.

As for C9A A10G, the self-cleavage was 1.01.

As to C9A A10C, the self-cleavage stood at 1.02.

In the case of A8C C45G, the self-cleavage came out at 0.984.

In the case of A8G U62G, the self-cleavage amounted to 0.367.

With C9A C22G, the self-cleavage was 0.181.

C9A C22U: the self-cleavage is 0.424.

For C9A C22A, the self-cleavage amounted to 0.251.

Regarding C9A U62G, the self-cleavage was found to be 0.943.

For the variant C9A U62C, the self-cleavage was 0.931.

As to C9A U44G, the self-cleavage turned out to be 1.01.

A8G U55A: the self-cleavage is 0.269.

Regarding C9G A16C, the self-cleavage was found to be 0.548.

Regarding A8C C18A, the self-cleavage was determined as 0.152.

Take C9A U46G: the self-cleavage is 1.04.

Consider C9G G31A, for which the self-cleavage amounted to 0.936.

With C9G G19U, the self-cleavage stood at 0.643.

C9G G19C: the self-cleavage was 0.133.

Turning to C9G G50U, the self-cleavage amounted to 1.02.

On to C9G G50A, for which the self-cleavage turned out to be 1.01.

In the case of A8G G48C, the self-cleavage was found to be 0.954.

Consider C7U G47U, for which the self-cleavage stood at 1.02.

For the variant A8C G25U, the self-cleavage is 0.177.

As for C9A G28A, the self-cleavage stood at 0.265.

C9A U55G: the self-cleavage is 0.874.
